The supplement of paper PMC9112550, “Optimization of the antimicrobial peptide Bac7 by deep mutational scanning” (BMC Biology, 2022)

Tested on: Escherichia coli TOP10
Assay: shrunken log2 fold change of peptide-encoding DNA abundance (4.5 h post-induction vs induction); higher = less antimicrobial activity (less host growth inhibition)
Conditions: time post-induction: 4.5 h; library: site-saturation at positions 5, 18, 19, 20
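Also: peptides expressed intracellularly from a pBAD plasmid library in pooled LB shake-flask culture, induced with 0.3% L-arabinose, DNA abundance read by NGS, three biological replicates, DESeq2 with apeglm shrinkage.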

| Sequence | shrunken log2 fold change |
| --- | --- |
| RRIRPRPPRLPRPRPRPQSRPRP | 0.161 |
| RRIRKRPPRLPRPRPRPGENPRP | 0.318 |
| RRIRHRPPRLPRPRPRPTSVPRP | -0.0283 |
| RRIRVRPPRLPRPRPRPNKCPRP | -0.616 |
| RRIRRRPPRLPRPRPRPPPVPRP | 0.931 |
| RRIRVRPPRLPRPRPRPCNLPRP | -0.163 |
| RRIRYRPPRLPRPRPRPQAQPRP | 0.0442 |
| RRIRPRPPRLPRPRPRPADVPRP | 0.0118 |
| RRIRSRPPRLPRPRPRPKNCPRP | -0.149 |
| RRIRDRPPRLPRPRPRPRNFPRP | 0.0881 |
| RRIRYRPPRLPRPRPRPTAFPRP | 0.0438 |
| RRIRQRPPRLPRPRPRPYTPPRP | -0.856 |
| RRIRIRPPRLPRPRPRPIHKPRP | -0.782 |
| RRIRSRPPRLPRPRPRPIRRPRP | 0.011 |
| RRIRKRPPRLPRPRPRPEAAPRP | 1.8 |
| RRIRFRPPRLPRPRPRPWGYPRP | -0.164 |
| RRIRERPPRLPRPRPRPWALPRP | -0.144 |
| RRIRARPPRLPRPRPRPSAYPRP | 0.0396 |
| RRIRPRPPRLPRPRPRPQPPPRP | 0.509 |
| RRIRTRPPRLPRPRPRPDRLPRP | 0.0294 |
| RRIRNRPPRLPRPRPRPMGFPRP | -0.0516 |
| RRIRHRPPRLPRPRPRPWGGPRP | 0.39 |
| RRIRERPPRLPRPRPRPIPWPRP | -0.345 |
| RRIRGRPPRLPRPRPRPGRAPRP | 0.84 |
| RRIRLRPPRLPRPRPRPCDSPRP | -0.165 |

| Sequence | shrunken log2 fold change |
| --- | --- |
| RRIRTRPPRLPRPRPRPCRQPRP | -0.303 |
| RRIRRRPPRLPRPRPRPASMPRP | 0.0911 |
| RRIRWRPPRLPRPRPRPYVYPRP | 0.0229 |
| RRIRDRPPRLPRPRPRPSAWPRP | 0.123 |
| RRIRMRPPRLPRPRPRPKTAPRP | 2.56 |
| RRIRHRPPRLPRPRPRPMIVPRP | 0.0837 |
| RRIRMRPPRLPRPRPRPIFSPRP | 0.0637 |
| RRIRSRPPRLPRPRPRPAKAPRP | 0.000841 |
| RRIRGRPPRLPRPRPRPDPLPRP | 0.072 |
| RRIRCRPPRLPRPRPRPPGRPRP | 1.16 |
| RRIRPRPPRLPRPRPRPAQWPRP | 0.384 |
| RRIRHRPPRLPRPRPRPRYNPRP | -0.591 |
| RRIRLRPPRLPRPRPRPQTTPRP | -0.152 |
| RRIRVRPPRLPRPRPRPINSPRP | -0.022 |
| RRIRYRPPRLPRPRPRPPVGPRP | 0.0196 |
| RRIRCRPPRLPRPRPRPQGAPRP | -0.144 |
| RRIRYRPPRLPRPRPRPDTLPRP | -0.195 |
| RRIRGRPPRLPRPRPRPCVGPRP | 0.729 |
| RRIRWRPPRLPRPRPRPRDGPRP | 1.12 |
| RRIRMRPPRLPRPRPRPFVWPRP | 0.246 |
| RRIRGRPPRLPRPRPRPVAEPRP | 1.38 |
| RRIRCRPPRLPRPRPRPGYQPRP | -0.06 |
| RRIRRRPPRLPRPRPRPRNSPRP | -0.0834 |
| RRIRTRPPRLPRPRPRPWDNPRP | -0.0778 |
| RRIRSRPPRLPRPRPRPSTIPRP | -0.482 |

| Sequence | shrunken log2 fold change |
| --- | --- |
| RRIRARPPRLPRPRPRPMSTPRP | -0.0262 |
| RRIRSRPPRLPRPRPRPVPPPRP | 0.329 |
| RRIRLRPPRLPRPRPRPPWLPRP | 0.439 |
| RRIRNRPPRLPRPRPRPGEEPRP | -0.0107 |
| RRIRERPPRLPRPRPRPWCHPRP | -0.229 |
| RRIRPRPPRLPRPRPRPKMWPRP | 0.299 |
| RRIRSRPPRLPRPRPRPSDIPRP | -0.516 |
| RRIRYRPPRLPRPRPRPPHYPRP | -0.686 |
| RRIRNRPPRLPRPRPRPNQKPRP | -0.174 |
| RRIRWRPPRLPRPRPRPPIPPRP | 0.0875 |
| RRIRLRPPRLPRPRPRPITTPRP | -0.283 |
| RRIRSRPPRLPRPRPRPNPEPRP | 0.0679 |
| RRIRYRPPRLPRPRPRPMKFPRP | -0.0276 |
| RRIRPRPPRLPRPRPRPSQTPRP | 0.265 |
| RRIRWRPPRLPRPRPRPVFVPRP | -0.0738 |
| RRIRMRPPRLPRPRPRPVHHPRP | 0.00757 |
| RRIRGRPPRLPRPRPRPWEYPRP | -0.00088 |
| RRIRTRPPRLPRPRPRPDPMPRP | -0.0555 |
| RRIRHRPPRLPRPRPRPQGEPRP | -0.171 |
| RRIRTRPPRLPRPRPRPMLGPRP | -0.0672 |
| RRIRVRPPRLPRPRPRPNNSPRP | -0.309 |
| RRIRERPPRLPRPRPRPESEPRP | 0.0931 |
| RRIRTRPPRLPRPRPRPNGQPRP | 0.149 |
| RRIRPRPPRLPRPRPRPNSKPRP | -0.557 |
| RRIRHRPPRLPRPRPRPCFWPRP | -0.0857 |

| Sequence | shrunken log2 fold change |
| --- | --- |
| RRIRMRPPRLPRPRPRPYTEPRP | -0.245 |
| RRIRSRPPRLPRPRPRPHCCPRP | 0.022 |
| RRIRRRPPRLPRPRPRPPNQPRP | 0.337 |
| RRIRCRPPRLPRPRPRPRRNPRP | -0.0367 |
| RRIRMRPPRLPRPRPRPLPAPRP | 2.13 |
| RRIRRRPPRLPRPRPRPIFLPRP | 0.0228 |
| RRIRRRPPRLPRPRPRPLAKPRP | 0.571 |
| RRIRVRPPRLPRPRPRPGFIPRP | -0.202 |
| RRIRIRPPRLPRPRPRPNYGPRP | 0.0426 |
| RRIRQRPPRLPRPRPRPMVPPRP | -0.0191 |
| RRIRVRPPRLPRPRPRPNCYPRP | -0.411 |
| RRIRKRPPRLPRPRPRPPKCPRP | 0.069 |
| RRIRTRPPRLPRPRPRPPGNPRP | -0.0517 |
| RRIRERPPRLPRPRPRPQWYPRP | -0.56 |
| RRIRSRPPRLPRPRPRPQCIPRP | -1.27 |
| RRIRRRPPRLPRPRPRPNFNPRP | -0.0741 |
| RRIRFRPPRLPRPRPRPQDQPRP | -0.0978 |
| RRIRDRPPRLPRPRPRPMTRPRP | -0.113 |
| RRIRMRPPRLPRPRPRPERFPRP | 0.0214 |
| RRIRDRPPRLPRPRPRPKNEPRP | -0.00834 |
| RRIRFRPPRLPRPRPRPFKQPRP | -0.242 |
| RRIRSRPPRLPRPRPRPHANPRP | -0.168 |
| RRIRKRPPRLPRPRPRPPCQPRP | 0.47 |
| RRIRRRPPRLPRPRPRPAFFPRP | 0.58 |
| RRIRCRPPRLPRPRPRPISLPRP | -0.426 |

| Sequence | shrunken log2 fold change |
| --- | --- |
| RRIRLRPPRLPRPRPRPIQDPRP | -0.105 |
| RRIRKRPPRLPRPRPRPWCRPRP | -0.189 |
| RRIRVRPPRLPRPRPRPTEAPRP | 0.0175 |
| RRIRYRPPRLPRPRPRPGFPPRP | -6.24e-05 |
| RRIRRRPPRLPRPRPRPNFQPRP | 0.253 |
| RRIRCRPPRLPRPRPRPMQVPRP | -0.0376 |
| RRIRNRPPRLPRPRPRPHPKPRP | 0.187 |
| RRIRCRPPRLPRPRPRPLIYPRP | -0.764 |
| RRIRVRPPRLPRPRPRPNDMPRP | -0.337 |
| RRIRGRPPRLPRPRPRPWNGPRP | 0.0616 |
| RRIRYRPPRLPRPRPRPLGRPRP | -0.191 |
| RRIRDRPPRLPRPRPRPCYCPRP | -0.148 |
| RRIRFRPPRLPRPRPRPCVNPRP | -0.121 |
| RRIRGRPPRLPRPRPRPGAKPRP | 0.924 |
| RRIRNRPPRLPRPRPRPGQIPRP | 0.0192 |
| RRIRTRPPRLPRPRPRPMYMPRP | -0.0921 |
| RRIRKRPPRLPRPRPRPTGIPRP | 0.0402 |
| RRIRSRPPRLPRPRPRPQPRPRP | 0.285 |
| RRIRFRPPRLPRPRPRPKFEPRP | -0.081 |
| RRIRVRPPRLPRPRPRPFHFPRP | -0.238 |
| RRIRVRPPRLPRPRPRPDQMPRP | 0.0399 |
| RRIRQRPPRLPRPRPRPHIFPRP | 0.0297 |
| RRIRGRPPRLPRPRPRPGYPPRP | 0.115 |
| RRIRCRPPRLPRPRPRPVHYPRP | -0.0961 |
| RRIRMRPPRLPRPRPRPTWYPRP | -0.112 |

| Sequence | shrunken log2 fold change |
| --- | --- |
| RRIRIRPPRLPRPRPRPFETPRP | -0.231 |
| RRIRERPPRLPRPRPRPREHPRP | -0.0329 |
| RRIRVRPPRLPRPRPRPHPQPRP | -0.0987 |
| RRIRFRPPRLPRPRPRPSTWPRP | -0.000934 |
| RRIRVRPPRLPRPRPRPKVWPRP | 0.409 |
| RRIRMRPPRLPRPRPRPYRLPRP | -0.0977 |
| RRIRKRPPRLPRPRPRPSILPRP | -0.11 |
| RRIRYRPPRLPRPRPRPSWGPRP | -0.154 |
| RRIRRRPPRLPRPRPRPRGTPRP | 0.216 |
| RRIRTRPPRLPRPRPRPQMTPRP | 0.0824 |
| RRIRCRPPRLPRPRPRPDKHPRP | -0.333 |
| RRIRFRPPRLPRPRPRPYNNPRP | -1.15 |
| RRIRFRPPRLPRPRPRPLNKPRP | -0.522 |
| RRIRQRPPRLPRPRPRPPVFPRP | 0.247 |
| RRIRWRPPRLPRPRPRPSKEPRP | -0.267 |
| RRIRLRPPRLPRPRPRPEDKPRP | -0.0384 |
| RRIRQRPPRLPRPRPRPVSKPRP | -0.014 |
| RRIRERPPRLPRPRPRPFQCPRP | -0.018 |
| RRIRPRPPRLPRPRPRPEMYPRP | -0.269 |
| RRIRNRPPRLPRPRPRPQAKPRP | -0.00911 |
| RRIRSRPPRLPRPRPRPKVRPRP | 0.0559 |
| RRIRMRPPRLPRPRPRPCLLPRP | -0.0289 |
| RRIRIRPPRLPRPRPRPHCRPRP | -0.341 |
| RRIRVRPPRLPRPRPRPPEHPRP | -0.219 |
| RRIRLRPPRLPRPRPRPGAQPRP | 0.0336 |
